Where a chain is given by its changes, count along the chain named. Values joined by “and” are separate entries in the source; they are usually repeats but may differ in a detail not shown here. Equal entries are not always repeated.
T1: hCD112R mFC recombinant protein (human; murine, UniProt Q6DKI7 41-160)
T1 construct: range 41-160; expressed in 293E cells; also called hCD112R ECD mFC; hCD112R-ECD-mFC; not shown: murine IgG2a Fc domain (MX2-mFc vector)
T1 sequence (looked up): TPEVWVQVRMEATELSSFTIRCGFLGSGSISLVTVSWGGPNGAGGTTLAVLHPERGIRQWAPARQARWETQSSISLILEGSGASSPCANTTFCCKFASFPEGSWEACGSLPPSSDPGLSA

T2: human CD112R on Jurkat CD112R effector cells (human, UniProt Q6DKI7 1-326)
T2 sequence (looked up): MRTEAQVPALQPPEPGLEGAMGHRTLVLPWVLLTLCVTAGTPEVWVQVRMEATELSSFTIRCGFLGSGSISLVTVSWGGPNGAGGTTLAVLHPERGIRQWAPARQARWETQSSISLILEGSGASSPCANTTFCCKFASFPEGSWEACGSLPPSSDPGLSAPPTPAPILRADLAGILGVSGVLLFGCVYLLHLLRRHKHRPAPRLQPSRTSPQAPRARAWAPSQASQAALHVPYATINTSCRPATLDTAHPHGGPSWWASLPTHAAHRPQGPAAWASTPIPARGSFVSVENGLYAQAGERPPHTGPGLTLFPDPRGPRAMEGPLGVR

B1: Hu18 (antibody, IgG4, V domains shown)
VH: EVQLVESGGGLVKPGGSLRLSCAASGFTFSSYHMSWVRQAPGKGLELVSAISRDGDSTYYPDTVKGRFTISRDNAKNSLYLQMNSLRAEDTAVYYCSRHEDYFGFAMDSWGQGTLVTVSS
VL: EIVMTQSPPTLSLSPGERVTLSCKASQSVSNDVAWYQQKPGQAPRLLIYYVSNRFTGIPARFSGSGSGTDFTLTISSLQPEDFAVYFCQQAYRSPWTFGQGTKLEIK
notes: humanized IgG4
B2: Hu19 (antibody, IgG4, V domains shown)
VH: B1 VH with N74D, K76E
VL: DIVMTQSPDSLAVSLGERATINCKASQSVTNDVAWYQQKPGQPPKLLIYYVSNHYTGVPDRFSGSGSGTDFTLTISSLQAEDVAVYFCQQAYRSPWTFGQGTKLEIK
notes: humanized IgG4
B3: Hu4 (antibody, IgG4, V domains shown)
VH: EVQLVESGGGLVQPGGSLRLSCAASGFTFSSYHMSWVRQAPGKGLELVAAINSNDINTYYLDTVKGRFTISRDIAKNSLYLQMNSLRAEDTAVYYCARHEDYYGFAMDYWGQGTLVTVSS
VL: B2 VL with T30S, N53H, H54R, Y55F, Q89H
notes: humanized IgG4; also called Hu-04
B4: Hu7 (antibody, IgG4, V domains shown)
VH: B3 VH with Q13K, A49S
VL: B2 VL
notes: humanized IgG4; also called Hu-07
B5: Hu13 (antibody, IgG4, V domains shown)
VH: B1 VH
VL: B2 VL
notes: humanized IgG4
B6: Hu10 (antibody, IgG4, V domains shown)
VH: B3 VH with Q13K, A49S
VL: B2 VL with T30S, N53H, H54R, Y55F, Q89H
notes: humanized IgG4
B7: Hu1 (antibody, IgG4, V domains shown)
VH: B3 VH
VL: B2 VL
notes: humanized IgG4; also called Hu-01
B8: Hu37 (antibody, IgG4, V domains shown)
VH: B3 VH with A49S, D55V, N57S, I74N
VL: B2 VL
B9: Hu47 (antibody, IgG4, V domains shown)
VH: B3 VH with Q13K, A49S, D55V, N57S, I74N
VL: DIQMTQSPSSLSASVGDRVTITCKASQSVSNDVAWYQQKPGKAPKLLIYYVSNRFTGVPSRFSGSGSGTDFTLTISSLQPEDFATYFCQQAYRSPWTFGQGTKLEIK
B10: Hu46 (antibody, IgG4, V domains shown)
VH: B3 VH with Q13K, A49S, D55V, N57S, I74N
VL: B2 VL with T30S, N53H, H54R, Y55F, Q89H
B11: Hu40 (antibody, IgG4, V domains shown)
VH: B3 VH with A49S, D55V, N57S, I74N
VL: B2 VL with T30S, N53H, H54R, Y55F, Q89H
B12: Hu41 (antibody, IgG4, V domains shown)
VH: B3 VH with A49S, D55V, N57S, I74N
VL: B9 VL
B13: Hu38 (antibody, IgG4, V domains shown)
VH: B3 VH with A49S, D55V, N57S, I74N
VL: B9 VL with D1A, S30T, R54H, F55Y
B14: Hu44 (antibody, IgG4, V domains shown)
VH: B3 VH with Q13K, A49S, D55V, N57S, I74N
VL: B9 VL with D1A, S30T, R54H, F55Y
B15: Hu43 (antibody, IgG4, V domains shown)
VH: B3 VH with Q13K, A49S, D55V, N57S, I74N
VL: B2 VL
B16: Hu42 (antibody, IgG4, V domains shown)
VH: B3 VH with A49S, D55V, N57S, I74N
VL: B1 VL
B17: Hu48 (antibody, IgG4, V domains shown)
VH: B3 VH with Q13K, A49S, D55V, N57S, I74N
VL: B1 VL
B18: Hu39 (antibody, IgG4, V domains shown)
VH: B3 VH with A49S, D55V, N57S, I74N
VL: B1 VL with Q38E, N53H, F87Y, Q89H
B19: Hu45 (antibody, IgG4, V domains shown)
VH: B3 VH with Q13K, A49S, D55V, N57S, I74N
VL: B1 VL with Q38E, N53H, F87Y, Q89H

target: T1, hCD112R mFC recombinant protein; assay: ELISA, coated hCD112R-ECD-mFC
Procedure: (§1) A plate was coated with a hCD112R-ECD-mFC protein (1.5 μg/mL) at a fixed concentration, and the humanized anti-CD112R antibodies diluted in a gradient (initial concentration: 1 μg/mL, 2.5-fold gradient dilution, 12 concentration gradients in total) were added to bind to the antigen. HRP-conjugated goat anti-human antibody IgG (Fc specific) (Sigma, A0170) was subjected to a 5000-fold dilution and used as a detection antibody for detection. The color development was performed with 0.1 mg/mL TMB, and finally stopped with 2 M hydrochloric acid. The plate was read at 420 nm/620 nm. EC₅₀ was obtained by fitting with a four-parameter logistic regression (4PL) model. The […] were COM701 (anti-CD112R antibody, Compugen, obtained by expression and purification according to the sequences in US20180280506A1) and the anti-KLH hu-IgG4 antibody.

Binder	EC50 [µg/mL]
B1	0.00466
B2	0.00411
B3	0.00295
B4	0.00432
B5	0.00433
B6	0.00257
B7	0.00276

target: T1, hCD112R mFC recombinant protein; assay: FACS competition, hCD112R mFc on CHO CD112 cells
Procedure: (§2) Cells CHO CD112 overexpressing human CD112 were co-incubated with a hCD112R mFc protein solution (5 μg/mL) prepared in a staining buffer (PBS+1% FBS), and the humanized anti-CD112R antibodies or the control antibodies at different concentrations (initial concentration: 100 μg/mL, 3-fold dilution, 10 concentration gradients) at 4° C. for 30 min. Unbound antibodies were then washed with a staining buffer and the cells were incubated with 1% (v/v) goat anti-mouse IgG Fc fluorescent secondary antibodies (Jackson ImmunoResearch) prepared in a staining buffer at 4° C. for 30 min in the dark. Finally, the cells were collected by using a flow cytometer (BD Canto II), and the fluorescent antibodies bound to the cell surface were detected. Raw data were analyzed by using FlowJo to obtain MFI values, and a four-parameter curve fitting was performed by using GraphPad Prism software to obtain IC₅₀ values. The positive control and the negative control were COM701 (anti-CD112R antibody, Compugen, obtained by expression and purification according to the sequences in US20180280506A1) and the anti-KLH hu-IgG4 antibody, respectively.

Binder	IC50
B1	3.39 µg/mL and 2.51 µg/mL
B2	2.48 µg/mL
B3	4.22 µg/mL
B4	5.06 µg/mL
B5	2.19 µg/mL
B6	4.17 µg/mL
B7	4.31 µg/mL

target: T1, hCD112R mFC recombinant protein; assay: FACS competition, hCD112R mFc on CHO CD112 cells; IC50 COM701/IC50 antibody
Procedure: as §2

Binder	Relative activity (%)
B2	144
B3	94.2
B4	78.6
B5	164
B6	95.5
B7	92.2

target: T1, hCD112R mFC recombinant protein; assay: ELISA, coated hCD112R-ECD-mFC; EC50 COM701/EC50 antibody
Procedure: as §1

Binder	Relative activity (%)
B1	122
B2	139
B3	144
B4	91
B5	132
B6	153
B7	154

target: T2, human CD112R on Jurkat CD112R effector …; assay: cell-based or functional assay

Binder	EC50, CD112R/CD112 reporter [µg/mL]	Relative activity (%), EC50 COM701/EC50 antibody [%]
B8	0.0355	182
B1	0.0263	209
B9	0.039	190
B10	0.0269	249
B2	0.0404	127
B3	0.0385	186
B4	0.144	48.6
B11	0.0242	227
B5	0.0252	192
B6	0.0377	199
B12	0.0267	243
B13	0.0337	192
B14	0.0387	174
B15	0.0426	158
B16	0.0355	183
B7	0.0688	92
B17	0.0421	176
B18	0.0217	254
B19	0.0256	261

— patent publication US20240309087A1 (SHANGHAI JUNSHI BIOSCIENCES, published 2024)
